Data taken from patent US20220135655A1 (Dana-Farber, published 2022).

B1: 2C1 (scFv)
scFv: QVQLVQSGAEVKKPGSSVKVSCKASGGIFSSYAISWVRQAPGQGLEWMGGISAIFGTANYAQKFQGRVTITADESTSTAYMELSSLRSEDTAVYYCARDSGIASGYTAYMDYWGQGTLVTVSSGGGSGGGSGGGSGGGSSSELTQDPAVSVALGQTVRITCQGDSLRTSYASWYQQKPGQSPVLVIYQSTKRPSGIPERFSASSSGNTASLTITGAQAEDEADYYCNSRGSGGNPYVFGTGTKVTVL
B2: 2E12 (scFv)
scFv: QVQLVQSGAEVKKPGSSVKVSCKASGVTFSSYAISWVRQAPGQGLEWMGGISPMFGTANYAQKFQGRVTITADESTNTAYMELSSLRSEDTAVYYCARGGGYYPAGVGRYDVWGQGTLVTVSSGGGSGGGSGGGSGGGSDIVMTQSPDSLAVSLGERATINCKSSQNVLYSSNNKNNLAWYQQRPGQPPKVLLYWASTRASGVPDRFSGSGSGTDFTLTINSLQAEDVALYYCQQYYGKPFTFGPGTKVEIK
B3: 2A11 (scFv)
scFv: QVQLVQSGAEVKKPGSSVKVSCKASGVTFSSYAISWVRQAPGQGLEWMGGISPVFGTANYAQKFQGRVTITADDSTNTAYMELSSLRSEDTAVYYCARSRGYTVSSLAGRYFDQWGQGTLVTVSSGGGSGGGSGGGSGGGSETTLTQSPGTLSLSPGERASLSCKASESLCSTCLAWYQQKPGQAPRLIVYGATSRATGIPDRFSGSGSGTDFTLTISRLEPEDFAVYYCQQYGSSPQTFGQGTKVEIK
B4: 1F5 (scFv)
scFv: QVQLVQSGAEVKKPGSSVKVSCKASGGTFSSYAISWVRQAPGQGLEWMGGISPIFGTANYAQKFQGRVTITSDESTSTAYMELSSLRSEDTAVYYCARDQGGTRGNYFDVWGQGTLVTVSSGGGSGGGSGGGSGGGSQPVLTQPPSVSKGLRQTATVTCTGNSNNVGNQGAAWLQQHQGHPPKLLSYRNNNRPSGISERLSASRSGNTASLTIAGLQPEDEADYYCSAWDNTVSGWVFGGGTRVTVL
B5: 1E6 (scFv)
scFv: QVQLVQSGAEVKKPGSSVKVSCKASGVTFSSYAISWVRQAPGQGLEWMGGISPIFGTANYAQKFQGRVTITADESTSTAYMELSSLRSEDTAVYYCARGREYYASNGDSFDVWGQGTLVTVSSGGGSGGGSGGGSGGGSQPVLTQPPSVSVAPGKTASISCEGNNIATKSVHWYQQKSGHAPVVVVYHDSDRPSGVPDRFSGSKSGTSASLAISGLRSEDEADYYCAAWDDSLSGPWVFGGGTKLTVL
B6: 1F3 (scFv)
scFv: QVQLVQSGAEVKKPGSSVKVSCKASGVIFSSYAISWVRQAPGQGLEWMGGISPIFGTANYAQKFQGRVTITADESTSTAYMELSSLRSEDTAVYYCARSRGYAPGTSFHYDVWGQGTLVTVSSGGGSGGGSGGGSGGGSLPVLTQAPSMSVAPGKTASITCGGDNIGSKSVHWYQQKPGQAPVLVMYYDSDRPSGIPERFSGSNSGNTATLTISRVEAGDEADYFCQLWDHTNSHVVFGGRTKLTVL
B7: 2B6 (scFv)
scFv: QVQLVQSGAEVKKPGSSVKVSCKASGGPFSSYAISWVRQAPGQGLEWMGGISPIFGTANYAQKFQGRVTITADKSTNTAYMELSSLRSEDTAVYYCARGRSYIVSVSPGFDVWGQGTLVTVSSGGGSGGGSGGGSGGGSQSVLTQPPSASGSPGQSVTISCTGTSSDVGGYNYVSWYQQYPGKAPKLMIYEVSKRPSGVPDRFSGSKSGTSASLAISELQSEDEADYYCASWDDSLNAYVFGSGTKVTVL
B8: 2A1 (scFv)
scFv: QVQLVQSGAEVKKPGSSVKVSCKASGVIFSSYAISWVRQAPGQGLEWMGGIIPIFGTANYAQKFQGRVTITADKSTSTAYMELSSLRSEDTAVYYCARGGSGSFDVWGQGTLVTVSSGGGSGGGSGGGSGGGSQPGLTQPPSASGTPGQRVTISCSGSSSNLGSNYVFWYQHLPGAAPKLLIYRNSQRPSGVPDRFSGSKSGTSASLAISGLQSEDEADYYCAAWDDSLNGVVFGGGTKLTVL
B9: 1H4 (scFv)
scFv: QVQLVQSGAEVKKPGSSVKVSCKASGVPFSSYAISWVRQAPGQGLEWMGGISPLFGTANYAQKFQGRVTITADQSTSTVYMELSSLRSEDTAVYYCARGLGTYSPSLYPRGMDVWGQGTLVTVSSGGGSGGGSGGGSGGGSLPVLTQPPSASGTPGQSVTISCSGSSSNIGRNDVNWYQQFPGRAPKLLIYGRDERPFGVPARFSGSKSGTSASLAISGLQSEDEADYYCAAWDASLMIYVFGTGTTVTVL
B10: 2E11 (scFv)
scFv: QVQLVQSGAEVKKPGSSVKVSCKASGGTFSSYAISWVRQAPGQGLEWMGGINPIFGTANYAQKFQGRVTITADESTNTAYMELSSLRSEDTAVYYCARGESAYYSRNYDVWGQGTLVTVSSGGGSGGGSGGGSGGGSSYELTQPPSVSKGLRQTATLTCTGNSSNVGNQGASWLQQHQGHPPKLLSYRNDNRPSGISERFSASRSGNTASLTITGLQPEDEADYYCSAWDNSLSAWVFGGGTKLTVL
B11: 1F6 (scFv)
scFv: QVQLVQSGAEVKKPGSSVKVSCKASGGTFSSYAISWVRQAPGQGLEWMGGIITIFGTANYAQKFQGRVTITADESTNTAYMELSSLRSEDTAVYYCARGGGGRFDVWGQGTLVTVSSGGGSGGGSGGGSGGGSSYELTQPPSVSGTPGQRVTISCSGSTSNIGNNALNWYQKLPGTAPKLLIYSLNQRPSGVPDRFSGSKSGTSASLAISGLQSEDEADYYCEAWDDSLSGPVFGGGTKVTVL
B12: 1F1 (scFv)
scFv: QVQLVQSGAEVKKPGSSVKVSCKASGGTFSSYAISWVRQAPGQGLEWMGGISAIFGTANYAQKFQGRVTITADESTRTAYMELSSLRSEDTAVYYCARGSGYYVAASGAFDVWGQGTLVTVSSGGGSGGGSGGGSGGGSQPGLTQPPSVSKGLRQTATLTCTGNINNVGDQGAGWLQQHQGRPPKLLSYRNSNRPSGVSERFSASRSGNTASLTITGLQPEDEADYYCSAWDSSLSDWVFGGGTKLTVL
B13: 2F1 (scFv)
scFv: QVQLVQSGAEVKKPGSSVKVSCKASGGTFSSYAISWVRQAPGQGLEWMGGITPLFGTANYAQKFQGRVTITADDSTSTAYMELSSLRSEDTAVYYCARGPTLYSPPVFDVWGQGTLVTVSSGGGSGGGSGGGSGGGSQTVVTQEPSFSVSPGGTITLTCGLSSGSVSTTNYPSWYQQTPGRTPRTLIYNTNTRSSGVPDRFSGSILGNKAALTITGAQAGDESDYYCVLYMGRGIYVFGSGTKVSVL
B14: 1F12 (scFv)
scFv: QVQLVQSGAEVKKPGSSVKVSCKASGGIFSSYAISWVRQAPGQGLEWMGGITPIFGTANYAQKFQGRVTITADESTRTAYMELSSLRSEDTAVYYCARDLSRDSLNLPGSSPGYDLWGQGTLVTVSSGGGSGGGSGGGSGGGSETTLTQSPGTLSLSPGERATLSCRASQSVSSNLAWYQQKPGQAPRLLIYGASTRATGIPARFSGSGSGTEFTLTISSLQSEDFAVYYCQQYSSSPYTFGQGTKLEIK
B15: 1H2 (scFv)
scFv: QVQLVQSGAEVKKPGSSVKVSCKASGGPFRSYAISWVRQAPGQGLEWMGGIIPIFGTANYAQKFQGRVTITADESTSTAYMELSSLRSEDTAVYYCARGGVYSFDVWGQGTLVTVSSGGGSGGGSGGGSGGGSQSGLTQPPSASGTPGQRVTISCSGSGSNVGSNVVNWYQHLPGTAPKLLIYRNNQRPSGVPDRFSGSKSGTSASLAISGLQSEDEADYYCAAWDDRLNGFVFGTGTKVTVL

What follows are binders tested against A/California/04/2009 (H1CA0409) recombinant HA (influenza A virus A/California/04/2009, UniProt P26140 18-529) (assay: phage display panning (immunotube) against trimeric HA).

Row | Binder | binding result
1 | B1 | binds
2 | B2 | binds
3 | B3 | binds
4 | B4 | binds
5 | B5 | binds
6 | B6 | binds
7 | B7 | binds
8 | B8 | binds
9 | B9 | binds
10 | B10 | binds
11 | B11 | binds
12 | B12 | binds
13 | B13 | binds
14 | B14 | binds
15 | B15 | binds
